Laboratory results taken from article PMC10584130, “Effects of HSP70 chaperones Ssa1 and Ssa2 on Ste5 scaffold and the mating mitogen-activated protein kinase (MAPK) pathway in Saccharomyces cerevisiae” (PLOS ONE, 2023).

Molecular target: T1, Ste5-Myc9 (S. cerevisiae, UniProt P32917 1-917)
T1 construct: Ste5 MAPK scaffold protein of S. cerevisiae; source: S. cerevisiae (EY1775 ste5 bar1; EY3136/EY3141), expressed from plasmids (pSKM19 2μ; pSKM90), in whole cell extract; not shown: Myc9, C-terminal, kept
T1 sequence (looked up): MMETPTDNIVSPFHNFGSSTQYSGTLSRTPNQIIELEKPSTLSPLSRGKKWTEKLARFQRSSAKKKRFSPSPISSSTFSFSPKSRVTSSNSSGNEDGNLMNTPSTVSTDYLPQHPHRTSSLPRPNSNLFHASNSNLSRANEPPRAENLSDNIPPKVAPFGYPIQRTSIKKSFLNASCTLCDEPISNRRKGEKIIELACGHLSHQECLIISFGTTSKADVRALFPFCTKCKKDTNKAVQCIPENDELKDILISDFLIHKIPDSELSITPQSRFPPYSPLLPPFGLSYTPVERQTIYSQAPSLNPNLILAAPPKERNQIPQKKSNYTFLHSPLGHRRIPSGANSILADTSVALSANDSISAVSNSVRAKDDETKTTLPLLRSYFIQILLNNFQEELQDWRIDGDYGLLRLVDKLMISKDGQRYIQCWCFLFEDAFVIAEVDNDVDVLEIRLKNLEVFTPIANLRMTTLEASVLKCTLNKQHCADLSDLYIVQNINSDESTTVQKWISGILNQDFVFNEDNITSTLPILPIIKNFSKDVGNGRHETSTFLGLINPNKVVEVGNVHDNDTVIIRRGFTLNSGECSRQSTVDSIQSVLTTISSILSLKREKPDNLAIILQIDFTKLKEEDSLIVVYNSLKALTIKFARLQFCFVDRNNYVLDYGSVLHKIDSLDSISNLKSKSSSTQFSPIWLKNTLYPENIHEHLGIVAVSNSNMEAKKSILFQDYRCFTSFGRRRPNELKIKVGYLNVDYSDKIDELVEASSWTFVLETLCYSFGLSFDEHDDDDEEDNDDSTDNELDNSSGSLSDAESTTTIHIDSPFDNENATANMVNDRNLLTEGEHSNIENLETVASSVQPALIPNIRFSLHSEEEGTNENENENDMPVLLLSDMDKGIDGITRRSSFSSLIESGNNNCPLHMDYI
Experiment: affinity purification with mass spectrometry; Ste5-Myc9 IP'd with 9E10 from 10 mg yeast whole cell extract (EY1775, cells without or with 50 nM α factor for 2 hours); 20 mM Tris-HCl pH 7.2, 125 mM potassium acetate, 0.1% Tween 20; Coomassie-stained SDS gel, 70 kDa band digested with trypsin, LC-MS/MS; ImageJ densitometry of the gel
Conditions: partners not purified

ratio Ste5-Myc9:70 kDa Hsp70 (Coomassie densitometry), with α factor: 0.67
ratio Ste5-Myc9:70 kDa Hsp70 (Coomassie densitometry), without α factor: 1.45
B1: Hsp70 Ssa1 (endogenous) (natural protein)
chain: not shown
notes: Hsp70 chaperone Ssa1 of S. cerevisiae; also called 70 kDa protein; band a; source: endogenous, S. cerevisiae EY1775 whole cell extract
